# Data reported in patent US20230117831.
# T1: BRD4 peptide S325
# T1 chain: GQRRESSRPVKPPRR
# T2: BRD4 peptide S338
# T2 chain: KKDVPDSQQHPAPRR
# T3: BRD4 peptide S358
# T3 chain: EQLKCCSGILKEMRR
# T4: BRD4 peptide T169
# T4 chain: ELPTEETEIMIVQRR
# B1: AMPK α1β1γ1-His tag (SignalChem P47-10H) (protein)
# chain 1: MRRLSSWRKMATAEKQKHDGRVKIGHYILGDTLGVGTFGKVKVGKHELTGHKVAVKILNRQKIRSLDVVGKIRREIQNLKLFRHPHIIKLYQVISTPSDIFMVMEYVSGGELFDYICKNGRLDEKESRRLFQQILSGVDYCHRHMVVHRDLKPENVLLDAHMNAKIADFGLSNMMSDGEFLRTSCGSPNYAAPEVISGRLYAGPEVDIWSSGVILYALLCGTLPFDDDHVPTLFKKICDGIFYTPQYLNPSVISLLKHMLQVDPMKRATIKDIREHEWFKQDLPKYLFPEDPSYSSTMIDDEALKEVCEKFECSEEEVLSCLYNRNHQDPLAVAYHLIIDNRRIMNEAKDFYLATSPPDSFLDDHHLTRPHPERVPFLVAETPRARHTLDELNPQKSKHQGVRKAKWHLGIRSQSRPNDIMAEVCRAIKQLDYEWKVVNPYYLRVRRKNPVTSTYSKMSLQLYQVDSRTYLLDFRSIDDEITEAKSGTATPQRSGSVSNYRSCQRSDSDAEAQGKSSEVSLTSSVTSLDSSPVDLTPRPGSHTIEFFEMCANLIKILAQ
# chain 2: MGNTSSERAALERHGGHKTPRRDSSGGTKDGDRPKILMDSPEDADLFHSEEIKAPEKEEFLAWQHDLEVNDKAPAQARPTVFRWTGGGKEVYLSGSFNNWSKLPLTRSHNNFVAILDLPEGEHQYKFFVDGQWTHDPSEPIVTSQLGTVNNIIQVKKTDFEVFDALMVDSQKCSDVSELSSSPPGPYHQEPYVCKPEERFRAPPILPPHLLQVILNKDTGISCDPALLPEPNHVMLNHLYALSIKDGVMVLSATHRYKKKYVTTLLYKPI
# chain 3: METVISSDSSPAVENEHPQETPESNNSVYTSFMKSHRCYDLIPTSSKLVVFDTSLQVKKAFFALVTNGVRAAPLWDSKKQSFVGMLTITDFINILHRYYKSALVQIYELEEHKIETWREVYLQDSFKPLVCISPNASLFDAVSSLIRNKIHRLPVIDPESGNTLYILTHKRILKFLKLFITEFPKPEFMSKSLEELQIGTYANIAMVRTTTPVYVALGIFVQHRVSALPVVDEKGRVVDIYSKFDVINLAAEKTYNNLDVSVTKALQHRSHYFEGVLKCYLHETLETIINRLVEAEVHRLVVVDENDVVKGIVSLSDILQALVLTGGEKKP
# Assays:
# BRD4 peptide S325 = molecular target: T1, BRD4 peptide S325
# BRD4 peptide S338 = molecular target: T2, BRD4 peptide S338
# BRD4 peptide S358 = molecular target: T3, BRD4 peptide S358
# BRD4 peptide T169 = molecular target: T4, BRD4 peptide T169
# [1] = molecular target: BRD4-GST (BD1 and BD2 (49-460)) (BPS Bioscience 31044), O60885
protein,measurement,setting,value
B1,"ADP-Glo assay, phosphorylation of the peptide by AMPK compared with the SAMS peptide",BRD4 peptide S325,these peptides showed a 250-fold lower preference for phosphorylation than AMPK's natural ACC substrate-SAMS peptide
same,"ADP-Glo assay, phosphorylation of the peptide by AMPK compared with the SAMS peptide",BRD4 peptide S338,these peptides showed a 250-fold lower preference for phosphorylation than AMPK's natural ACC substrate-SAMS peptide
same,"ADP-Glo assay, phosphorylation of the peptide by AMPK compared with the SAMS peptide",BRD4 peptide S358,these peptides showed a 250-fold lower preference for phosphorylation than AMPK's natural ACC substrate-SAMS peptide
same,"ADP-Glo assay, phosphorylation of the peptide by AMPK compared with the SAMS peptide",BRD4 peptide T169,these peptides showed a 250-fold lower preference for phosphorylation than AMPK's natural ACC substrate-SAMS peptide
same,"BRD4 phosphorylation, western blot with phospho-AMPK substrate motif antibody",[1],"Applicants observed BRD4 phosphorylation only when PHICS, BRD4, and kinase were present"
